# Measurements: patent US12365904B2, “Thrombin binding circular aptamer and use thereof” (Hefei University of Technology, priority 2019, dated 2025)
# Assays:
# [1] = target: thrombin (Homo sapiens, UniProt P00734); assay: Inhibition of thrombin-catalyzed conversion of fibrinogen to fibrin, absorbance at 350 nm; format: biochemical; settings: for IC50: thrombin concentration of 0.1 nM, fibrinogen 2 μM
# Description: (§1) Thrombin (0.1 nM) and fibrinogen (2 μM) were incubated with TBCA and Lib of different concentrations separately in buffer systems (total reaction volume of 100 μL) for a certain amount of time (till reaction equilibrium was reached), and the IC50 values of TBCA and Lib were calculated by fitting of the absorbance of the reaction system measured at 350 nm on a microplate reader.
# The inhibition of thrombin-catalyzed conversion of fibrinogen to fibrin by TBCA and the random circular nucleic acid (Lib) was compared.
# as §1, with “TBCA, M1, M2, M3, M4, M5, D1, D2” for “TBCA”, “D3” for “Lib”
# [2] = Incubation in 50% serum at 37° C., electrophoresis, gray values of bands (biostability, half-life); format: in vitro ADME; settings: 0.5 μM
# Description: Incubation of 0.5 μM of TBCA and TBA each (nucleotide sequences thereof are shown in SEQ ID NO:1 and SEQ ID NO:2, respectively) was performed in 50% serum at a temperature of 37° C. Samples were taken for electrophoresis at 0 min, 1 min, 2 min, 5 min, 10 min, 30 min, 60 min (1 h), 120 min (2 h), 240 min (4 h), 480 min (8 h), 720 min (12 h) and 1440 min (24 h), respectively.
molecule,measurement,setting,value
"D3: Deletion variant of TBCA, SEQ ID NO:10 (DNA ATCTCGACTAGTCATAGGGGGCGCGAACATACGCGGTTGGTGTGGTTGGCTGACAA; DNA, backbone and methylation of C not given here; further chemistry not fully specified)",IC50,[1],0.13 nM
"TBA: Existing thrombin binding aptamer, 5′-GGTTGGTGTGGTTGG-3′, specifically targets α-thrombin [reference compound]",half-life,[2],approximately 2 min
same,IC50,[1],1.3 nM
"TBCA: Circular DNA aptamer, SEQ ID NO:1, 5′ end and 3′ end connected to form a ring (nucleic acid, DNA, backbone and methylation of C not given here; circular: 5' and 3' ends joined to form a ring) DNA: ATCTCGACTAGTCATAGGGGGCGCGAACATACGCGGTTGGTGTGGTTGGCTGACAATACTCGTTTTTGGTGTCTCGGAT",half-life,[2],about 8 hours
same,half-life,[2]; listed as thrombin binding circular aptamer,up to 8 hours
same,inhibition effect on thrombin relative to Argatroban,"[1]; thrombin 0.1 nM, ratio of IC50 values, TBCA vs Argatroban",30 times
same,inhibition effect on thrombin relative to TBA,"[1]; thrombin 0.1 nM, ratio of IC50 values, TBCA vs TBA",13 times
same,IC50,[1],0.15 nM
"M3: Substitution variant of TBCA, SEQ ID NO:5, N is a random nucleotide (nucleic acid, DNA, backbone, methylation of C and the base at N not given here; circular: 5' and 3' ends joined to form a ring) DNA: ATCTCGACTAGTCATAGGGGGCGCGAACATACGCGGTTGGTGTGGTTGGCTGACAANNNNNNNTTTTGGTGTCTCGGAT",IC50,[1],0.18 nM
"M2: Substitution variant of TBCA, SEQ ID NO:4, N is a random nucleotide (nucleic acid, DNA, backbone, methylation of C and the base at N not given here; circular: 5' and 3' ends joined to form a ring) DNA: ATCTCGANNNNNNNTAGGGGGCGCGAACATACGCGGTTGGTGTGGTTGGCTGACAATACTCGTTTTTGGTGTCTCGGAT",IC50,[1],0.36 nM
"M1: Substitution variant of TBCA, SEQ ID NO:3, N is a random nucleotide (nucleic acid, DNA, backbone, methylation of C and the base at N not given here; circular: 5' and 3' ends joined to form a ring) DNA: NNNNNNNCTAGTCATAGGGGGCGCGAACATACGCGGTTGGTGTGGTTGGCTGACAATACTCGTTTTTGGTGTCTCGGAT",IC50,[1],0.37 nM
"M4: Substitution variant of TBCA, SEQ ID NO:6, N is a random nucleotide (nucleic acid, DNA, backbone, methylation of C and the base at N not given here; circular: 5' and 3' ends joined to form a ring) DNA: ATCTCGACTAGTCATAGGGGGCGCGAACATACGCGGTTGGTGTGGTTGGCTGACAATACTCGTNNNNNNNGTCTCGGAT",IC50,[1],0.1 nM
"M5: Substitution variant of TBCA, SEQ ID NO:7, N is a random nucleotide (nucleic acid, DNA, backbone, methylation of C and the base at N not given here; circular: 5' and 3' ends joined to form a ring) DNA: ATCTCGACTAGTCATAGGGGGCGCGAACATACGCGGTTGGTGTGGTTGGCTGACAATACTCGTTTTTGGTNNNNNNNNN",IC50,[1],0.11 nM
"D2: Deletion variant of TBCA, SEQ ID NO:9 (nucleic acid, DNA, backbone and methylation of C not given here; further chemistry not fully specified) DNA: ATCTCGACTAGTCATAGGGGGCGCGAACATACGCGGTTGGTGTGGTTGGCTGACAATACTCGT",IC50,[1],0.09 nM
"D1: Deletion variant of TBCA, SEQ ID NO:8 (nucleic acid, DNA, backbone and methylation of C not given here; further chemistry not fully specified) DNA: ATCTCGACTAGTCATAGGGGGCGCGAACATACGCGGTTGGTGTGGTTGGCTGACAATACTCGTGTCTCGGAT",IC50,[1],0.15 nM
